This note sets out measurements from the supplement of paper PMC10126150.

± gives the standard deviation of the averaged measurements.
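Note: ATP exposure 15 min at 22 °C before imaging.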

For the data set, the system named is ATP. As to the kind of experiment: switch fluorescence ratio, 500 uM ATP over buffer (Cy3 cluster intensity, sum of 5 cycles each) (fold (ratio)); higher = stronger signal-on switching upon ATP binding; sequences stand for … in TCGTCGGCAGCGTCAGATGTGTATAAGAGACAGTTTTTTTTTTTTTTTTTTTTTTTTT…TC. To be noted: aptamer strand: ATP DNA aptamer (quencher-CACCTGGGGGAGTATTGCGGAGGAAGG + anchor), 100 nM annealed; ATP concentration: 500 uM. The method, boiled down: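 Values give the fluorescence ratio for each switch-domain sequence, averaged from per-cluster ratios of summed target-cycle to summed buffer-cycle Cy3 intensity. The Cy3-labelled switching-strand clusters sat on a modified Illumina MiSeq flow-cell, were annealed to 100 nM quencher-labelled ATP aptamer, and were imaged in selection buffer, then after 15 min with 500 uM ATP at 22 °C. Five cycles ran with NaOH stripping and re-annealing between them, and clusters outside 100-1000 RFU were excluded.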
Regarding TGGCGGGTTA, the switch fluorescence ratio turned out to be 0.988 ± 0.067. Regarding AATTTAAGCG, the switch fluorescence ratio amounted to 1.01 ± 0.017. With TGGGGAAATA the figure was 1.41 ± 0.57; with AAGGATGGGA, 1 ± 0.023; with GCGAATCGTA, 0.999 ± 0.049. With ATTTTGTCAT the figure was 0.972 ± 0.019; with GAGATCATTG, 1.07 ± 0.057; with TGGTCCTGGT, 0.997 ± 0.019. With AAATAATTGG the figure was 1.09 ± 0.013; with ACATAGGGCT, 0.987 ± 0.04; with TTTTTAACGG, 1.01 ± 0.024. For GTTCGTTGAC, the switch fluorescence ratio stood at 0.9862 ± 0.0067. For ACTGGGGAGC, the switch fluorescence ratio was determined as 0.985 ± 0.0078. With TCAGTCATGT the figure was 0.992 ± 0.028; with GGGAAACCAC, 1.04 ± 0.02; with ATATAGTGTA, 0.99 ± 0.029. With CAAATGGGAA the figure was 0.99 ± 0.016; with CCCGAATATT, 1.06 ± 0.029; with ACTGAGGGTA, 1.04 ± 0.027. In the case of CGGGTTTCGC, the switch fluorescence ratio came out at 0.986 ± 0.014. With ATTATTGGGG the figure was 0.9642 ± 0.0086. GCAAAAGAGA: the switch fluorescence ratio is 0.994 ± 0.032. Consider ACGCCAATGT, for which the switch fluorescence ratio came out at 1.34 ± 0.076.

Consider CCTTTGTGAT, for which the switch fluorescence ratio was 1.499 ± 0.0089. With AATCTTTATT, the switch fluorescence ratio came out at 1.008 ± 0.0018. On to TTTTTAGAAT, for which the switch fluorescence ratio was found to be 0.993 ± 0.027. AGTGCGTGCG: the switch fluorescence ratio came out at 0.979 ± 0.059.

As for TGATTGGTAA, the switch fluorescence ratio worked out at 0.939 ± 0.021. With GCGTCAATTA the figure was 1.08 ± 0.03; with GAATTGAGAA, 0.972 ± 0.035; with AATTACCATC, 1.01 ± 0.017. With TTTTTACATC the figure was 1 ± 0.021; with GTTGGCGGGG, 0.976 ± 0.015; with GTGAGCCACG, 0.9932 ± 0.0014. With TGCGGGGGTT the figure was 1.02 ± 0.03; with AGGAATGCAA, 1.09 ± 0.017. Turning to TATAGTGCGT, the switch fluorescence ratio stood at 0.978 ± 0.03. As to CAACTTGAAG, the switch fluorescence ratio is 0.977 ± 0.02. With AGTAATGAAA the figure was 0.975 ± 0.035; with AGACGTTTAA, 1.002 ± 0.0035. With ATTTATGTTT the figure was 0.979 ± 0.03. Turning to CTGTCGCTTA, the switch fluorescence ratio was 1.01 ± 0.019.

For TGGAATTGTG, the switch fluorescence ratio was 1.05 ± 0.058. For the sequence TTGCCACTGA, the switch fluorescence ratio is 1.02 ± 0.013.

With TGCATGTCTC, the switch fluorescence ratio turned out to be 1.43 ± 0.46.

Turning to TGACTGGGTA, the switch fluorescence ratio stood at 1 ± 0.021. For CAGGGAATAA, the switch fluorescence ratio was found to be 0.997 ± 0.011. With ACAGTGTGTC the figure was 0.994 ± 0.042; with GATAGTTCGC, 1.01 ± 0.015. In the case of TTTGGGACGT, the switch fluorescence ratio was found to be 0.978 ± 0.03.

In the case of GATCTTTTTT, the switch fluorescence ratio was 1.02 ± 0.023. With GGACTCCCAT, the switch fluorescence ratio is 1.23 ± 0.074. Turning to AGGTAGGGCA, the switch fluorescence ratio was determined as 0.9762 ± 0.0049. With TTATGTGTCG the figure was 0.983 ± 0.033.

As for CAGCTCAGCC, the switch fluorescence ratio stood at 1 ± 0.042. With TTTTAATGGA the figure was 1.03 ± 0.029. With CACGTATGTT the figure was 1.09 ± 0.021.

GAGTAGTTGT: the switch fluorescence ratio amounted to 0.9969 ± 0.0083. AGGGGGACAG: the switch fluorescence ratio amounted to 0.9761 ± 0.0039. For TTGGGGGTTG, the switch fluorescence ratio was determined as 1 ± 0.044.

With GCTCGGGGTG, the switch fluorescence ratio turned out to be 0.986 ± 0.032. For ATCGTGTGTC, the switch fluorescence ratio was 0.987 ± 0.071. With CCGGGTGCTA the figure was 2.36 ± 1.4; with TTCATGCCTG, 1.12 ± 0.092. With GGCAGCCGGG the figure was 0.97 ± 0.018; with TTAACTAGGG, 0.974 ± 0.037. As for GTTGATAGCG, the switch fluorescence ratio was 0.991 ± 0.025.

For the sequence GGGGATGCGC, the switch fluorescence ratio was found to be 1.02 ± 0.011. As to TCCATGTAA, the switch fluorescence ratio came out at 1.01 ± 0.045. Regarding CGTTCCTCGG, the switch fluorescence ratio turned out to be 1.77 ± 0.057. With GGGATTATTA the figure was 0.981 ± 0.018; with TTTTCCAGGT, 1.83 ± 0.42; with ACGTCCAAAA, 1.04 ± 0.026. On to AAGCCTTTGC, for which the switch fluorescence ratio was 1.052 ± 0.0041.

As for TTTTAGGACA, the switch fluorescence ratio amounted to 0.99977 ± 0.00081. With TACAATTTCG, the switch fluorescence ratio was 1.01 ± 0.032. With GCTTCCTGTG the figure was 1.49 ± 0.036. With TTACACAAAA the figure was 1 ± 0.033; with GAGTTGAGTT, 1.01 ± 0.074. With TAGATAGAGT the figure was 0.994 ± 0.024; with CTGTACAAGC, 1.15 ± 0.03; with AACAGTGTTT, 0.971 ± 0.065. On to CCTTGGTGAG, for which the switch fluorescence ratio was 1.01 ± 0.014. For TTATGGTGGT, the switch fluorescence ratio worked out at 0.973 ± 0.027. In the case of AACTAGGGCT, the switch fluorescence ratio stood at 0.976 ± 0.028.

As to GCCAGCATGG, the switch fluorescence ratio stood at 1.003 ± 0.0046.

As to ATGTAGCTGG, the switch fluorescence ratio stood at 1.07 ± 0.033.

GCGCCAAGAG: the switch fluorescence ratio came out at 1.29 ± 0.11.

On to TAATTTAGTG, for which the switch fluorescence ratio is 0.9858 ± 0.0056.

ACTACAGCTC: the switch fluorescence ratio amounted to 1.15 ± 0.021. As for TTCGGTCGTA, the switch fluorescence ratio amounted to 1.01 ± 0.053.

As to AGGTGTATTC, the switch fluorescence ratio is 0.9962 ± 0.0058. Turning to TTATTAGCTT, the switch fluorescence ratio was 0.9916 ± 0.004.

GTTAGAATAA: the switch fluorescence ratio came out at 0.958 ± 0.015. With ATCCGAGGGG the figure was 1.03 ± 0.05. With AAGGTCCAGT the figure was 1.13 ± 0.23; with TTTCGTTAAC, 1.06 ± 0.028. With GATTACAGTG the figure was 1.02 ± 0.047. As for TTGGGGTAAA, the switch fluorescence ratio was 1.03 ± 0.044. CGGGGAAAGC: the switch fluorescence ratio turned out to be 0.985 ± 0.027. As for ACTTGGGGTG, the switch fluorescence ratio turned out to be 1.04 ± 0.013.

Turning to AGTAGGGCGG, the switch fluorescence ratio is 1 ± 0.033. As for TGCAAGGGCG, the switch fluorescence ratio is 0.981 ± 0.021. As to TTTGTTGTAG, the switch fluorescence ratio is 0.985 ± 0.028. Take GCATGTGTTC: the switch fluorescence ratio was found to be 0.995 ± 0.038. Turning to ATATATGCAG, the switch fluorescence ratio stood at 0.986 ± 0.018.

Regarding GGGACACGGT, the switch fluorescence ratio was 0.987 ± 0.023. As to GCTTGCTCAT, the switch fluorescence ratio is 1.018 ± 0.0094. As for CAGGATCATC, the switch fluorescence ratio is 0.9884 ± 0.0035. As for TAAAGTAAAT, the switch fluorescence ratio was 0.9668 ± 0.0028. With CCCGGAGTGT the figure was 1.732 ± 0.0079; with GAAGCTTATA, 1.251 ± 0.0019; with GCGCTTCAA, 0.971 ± 0.014. In the case of GAAAAAGAGA, the switch fluorescence ratio is 0.9736 ± 0.0016. With TTTACAGATT the figure was 0.982 ± 0.023; with GTGAGATGTA, 0.991 ± 0.045; with GGATTATGGA, 0.971 ± 0.025.

With ACAGGACGTT, the switch fluorescence ratio was found to be 1.11 ± 0.028. For the sequence GACAGTTTGT, the switch fluorescence ratio worked out at 1.01 ± 0.033.

ATCAGATAGC: the switch fluorescence ratio was found to be 0.977 ± 0.018.
